The record followed here is patent publication US20230381350A1 (PRECIRIX N V, published 2023).

Assay [1] addresses T1, human DPP IV recombinant protein (human, UniProt P27487 29-766).
T1 construct: extracellular domain; Bought protein; also called Dipeptidyl amino-peptidase IV
Nature of the assay: ELISA, coated human DPP IV, HA-His6-tagged VHH extract, anti-HA detection. How it is done:
(§1) The day before measurement, 0.1 μg recombinant protein at a concentration of 1 μg/mL in 100 mM NaHCO₃, pH 8.2 was coated in a 96-well ELISA plate (Nunc MaxiSorp). Per VHH clone also a blank coated well was foreseen (only buffer). The wells were overcoated with protein-free T20 (PBS) blocking buffer (Pierce). After washing with PBS, pH7.4, 0.05% Tween, VHH-containing bacterial freeze-thaw extract was added to every well. Binding of HA-His₆-tagged VHHs was detected by using mouse anti-HA.11 epitope tag (clone 16B12, Biolegend) as the primary Ab and goat anti-mouse IgG (whole molecule) alkaline phosphatase conjugate (Sigma-Aldrich) as the secondary Ab, with thorough washing with PBS, pH 7.4, 0.05% Tween in between. Signals were developed using phosphatase substrate (Sigma-Aldrich) in AP blot buffer (100 mM NaCl, 50 mM MgCl₂, 100 mM Tris, pH 9.5). The absorbance was determined at 405 nm using an absorbance microplate reader (Molecular Devices). Per clone the ratio was determined between the absorbance in the antigen-coated well versus the well without antigen.

In assay [2] the target is T1, human DPP IV recombinant protein. Nature of the assay: ELISA on coated recombinant protein, VHH-containing bacterial extract, anti-HA detection, signal-to-background ratio. How it is done:
as §1

For assay [3], the target named is T2, murine FAP recombinant protein (murine, UniProt P97321 26-761).
T2 construct: The protein was biotinylated for bio-layer interferometry; also called extracellular domain of murine FAP with N-terminal His6-tag
T2 sequence: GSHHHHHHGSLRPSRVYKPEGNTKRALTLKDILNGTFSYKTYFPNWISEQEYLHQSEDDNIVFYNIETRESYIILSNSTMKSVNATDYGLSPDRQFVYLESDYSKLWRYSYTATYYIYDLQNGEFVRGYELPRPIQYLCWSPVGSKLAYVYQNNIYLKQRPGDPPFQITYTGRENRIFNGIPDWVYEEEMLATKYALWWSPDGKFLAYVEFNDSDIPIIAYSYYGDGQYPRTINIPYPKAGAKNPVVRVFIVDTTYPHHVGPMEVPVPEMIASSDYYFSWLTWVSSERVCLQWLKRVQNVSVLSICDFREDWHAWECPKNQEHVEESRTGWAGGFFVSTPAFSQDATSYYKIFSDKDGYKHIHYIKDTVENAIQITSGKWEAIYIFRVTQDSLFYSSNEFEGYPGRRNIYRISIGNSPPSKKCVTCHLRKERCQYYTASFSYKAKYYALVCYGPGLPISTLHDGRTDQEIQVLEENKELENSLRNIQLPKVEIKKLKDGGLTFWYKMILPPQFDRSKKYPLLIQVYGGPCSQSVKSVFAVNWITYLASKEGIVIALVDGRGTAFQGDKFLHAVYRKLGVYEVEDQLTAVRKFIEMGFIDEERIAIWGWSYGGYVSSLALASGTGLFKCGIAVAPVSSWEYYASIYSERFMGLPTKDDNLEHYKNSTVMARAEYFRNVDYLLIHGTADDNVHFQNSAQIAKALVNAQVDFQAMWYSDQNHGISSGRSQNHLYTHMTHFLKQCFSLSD
The description is as above. How it is done: as §1

Assay [4] has as its target T3, murine FAP expressed on cells (murine, UniProt P97321 1-761).
T3 construct: also called murine FAP cell surface protein
T3 sequence: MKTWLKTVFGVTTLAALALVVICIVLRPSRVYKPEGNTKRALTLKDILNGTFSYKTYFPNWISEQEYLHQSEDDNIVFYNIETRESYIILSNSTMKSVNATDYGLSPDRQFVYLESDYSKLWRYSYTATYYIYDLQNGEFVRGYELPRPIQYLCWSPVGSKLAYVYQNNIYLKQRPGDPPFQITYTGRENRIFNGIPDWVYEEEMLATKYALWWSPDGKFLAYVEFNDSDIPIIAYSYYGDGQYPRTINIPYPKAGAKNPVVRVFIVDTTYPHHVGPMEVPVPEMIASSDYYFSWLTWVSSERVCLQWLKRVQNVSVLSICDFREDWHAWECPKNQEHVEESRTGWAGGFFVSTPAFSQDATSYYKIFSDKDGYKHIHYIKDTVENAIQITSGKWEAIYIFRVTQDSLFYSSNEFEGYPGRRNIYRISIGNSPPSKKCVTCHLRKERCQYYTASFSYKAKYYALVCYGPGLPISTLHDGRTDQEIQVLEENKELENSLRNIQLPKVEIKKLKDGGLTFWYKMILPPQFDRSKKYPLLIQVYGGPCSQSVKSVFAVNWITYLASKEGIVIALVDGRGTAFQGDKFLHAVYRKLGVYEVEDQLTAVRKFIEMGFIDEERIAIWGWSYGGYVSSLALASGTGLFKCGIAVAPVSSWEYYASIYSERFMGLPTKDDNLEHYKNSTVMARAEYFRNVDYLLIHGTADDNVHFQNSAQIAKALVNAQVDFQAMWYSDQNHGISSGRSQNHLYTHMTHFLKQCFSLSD
Nature of the assay: flow cytometry on murine FAP-transfected HEK293 cells, VHH-containing bacterial extract, anti-HA and PE-conjugated secondary detection, Δmfi against cells without VHH. How it is done:
The cell binding was tested by flow cytometry experiments. Per test condition 1×10⁵ to 2×10⁵ cells, washed in PBS, 0.5% BSA, were pelleted in the well of a 96-well U-bottom plate. The cell pellets were resuspended and incubated with the VHH-containing bacterial freeze-thaw extracts (diluted in PBS, 0.5% BSA). Binding of HA-His₆-tagged VHHs was detected by using mouse anti-HA.11 epitope tag (clone 16B12, Biolegend) as the primary detection antibody and PE-conjugated rat anti-mouse IgG1 (clone A85-1, BD Pharmingen) as the secondary detection antibody, with washing with PBS, 0.5% BSA in between, and finally resuspended in PBS, 0.5% BSA.
Flow cytometry was performed on a FACS Canto II (BD Biosciences). Data were analyzed using FlowJo software. Based on the forward scatter-side scatter plot a single cell gate was drawn. The median fluorescence intensity was determined on a histogram for the phycoerythrin signal of the single cells. The difference in median fluorescence intensity (A mfi) was calculated relative to a test condition without incubation of VHHs (cells+primary Ab+secondary Ab), and are shown in FIG. 3.
Background: A flow cytometer gives signals particle by particle.

Assay [5] has as its target T4, human FAP recombinant protein (human, UniProt Q12884 26-760).
T4 construct: The protein was biotinylated with sulfo-NHS-SS-biotin for bio-layer interferometry; also called extracellular domain of human FAP with N-terminal His6-tag
T4 sequence: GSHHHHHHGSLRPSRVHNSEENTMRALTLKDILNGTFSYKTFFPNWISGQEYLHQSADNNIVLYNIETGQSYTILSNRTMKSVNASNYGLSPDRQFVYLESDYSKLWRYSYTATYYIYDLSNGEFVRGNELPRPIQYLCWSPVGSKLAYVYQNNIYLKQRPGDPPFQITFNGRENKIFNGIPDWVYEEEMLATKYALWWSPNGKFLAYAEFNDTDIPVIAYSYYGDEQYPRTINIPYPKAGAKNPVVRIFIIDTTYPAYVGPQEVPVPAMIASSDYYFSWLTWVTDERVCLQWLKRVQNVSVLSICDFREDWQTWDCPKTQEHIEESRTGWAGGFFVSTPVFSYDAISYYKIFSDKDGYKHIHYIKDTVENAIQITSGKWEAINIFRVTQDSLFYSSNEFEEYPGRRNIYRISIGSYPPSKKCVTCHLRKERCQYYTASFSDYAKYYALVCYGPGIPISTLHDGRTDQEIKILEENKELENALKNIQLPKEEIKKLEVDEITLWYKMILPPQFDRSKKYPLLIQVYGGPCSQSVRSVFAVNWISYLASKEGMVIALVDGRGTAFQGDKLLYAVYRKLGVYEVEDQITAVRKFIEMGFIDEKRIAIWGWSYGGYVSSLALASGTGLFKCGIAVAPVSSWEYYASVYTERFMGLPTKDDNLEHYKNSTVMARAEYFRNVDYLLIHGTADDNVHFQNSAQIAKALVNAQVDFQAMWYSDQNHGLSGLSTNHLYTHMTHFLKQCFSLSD
Kind of assay: ELISA, coated human FAP recombinant protein, HA-His6-tagged VHH extract, anti-HA detection. How it is done:
as §1
(In an ELISA, binding on a coated surface is turned into a signal by an enzyme label.)

Assay [6] deals with T4, human FAP recombinant protein. Kind of assay: bio-layer interferometry (Octet RED96), biotinylated human FAP on streptavidin sensor, kinetic titration, 25 °C. As to the method:
(§2) The kinetic parameters of antigen binding by purified VHHs were determined via bio-layer interferometry with an Octet RED96 instrument (ForteBio). The assay was performed at 25° C. with shaking at 1000 rpm. Streptavidin coated SA sensors were equilibrated in assay buffer (HBS supplemented with 0.5% BSA, 0.1% Tween), before loading for 5 min with the biotinylated FAP recombinant protein at a concentration of 5 μg/ml. His₆-tagged VHHs were analyzed in a threefold serial dilution from 30 nM to 0.4 nM in assay buffer (except for VHH B3 binding murine FAP recombinant protein, for which a fivefold serial dilution from 1000 nM to 1.6 nM was employed). First the baseline was measured for 180 s in assay buffer, followed by 5 subsequent association phases of 180 s with the VHH preparations in increasing order of concentration, with 75 s intermediate dissociation phases in assay buffer in between, and a final dissociation phase in assay buffer of 30 min. In every assay a reference sensor loaded with FAP recombinant protein was included that was incubated in assay buffer during the association phases.
(§3) Binding curves were exported and analyzed using the BIAevaluation analysis software (GE Healthcare). First the y-axes of the different curves were aligned to the median of the last 5 s of the baseline measurement. Subsequently, the sensorgram of the reference sensor was subtracted from all other sensorgrams. The resulting binding curve was fitted using a general fit with the ‘kinetic titration with drift’ binding model (1:1 (antigen:analyte) model; Karlsson, R. et al (2006), Analyzing a kinetic titration series using affinity biosensors. Analytical Biochemistry 349: 136-147), with Rmax fitted global, RI local and drift set to 0.
(§4) Table 7 gives an overview of the kinetic parameters of antigen binding for His₆-tagged VHHs B1, B2, B3 and B4 (SEQ ID NO: 21-24), as determined by bio-layer interferometry with biotinylated human or murine FAP recombinant protein that was loaded on the sensor.

The target is the same in assay [7]. Kind of assay: bio-layer interferometry, biotinylated human FAP on sensor. As to the method: as §2, with “In every assay a reference sensor loaded with FAP recombinant protein was included that was incubated in assay buffer during the association phases.” left out
Binding curves were exported and analyzed using the BIAevaluation analysis software (GE Healthcare). […]
as §4

Assay [8] has as its target T2, murine FAP recombinant protein. Kind of assay: bio-layer interferometry (Octet RED96), biotinylated murine FAP on streptavidin sensor, kinetic titration, 25 °C. How it is done: as §2, §3, §4
Background: In BLI a coated tip is dipped into the sample, and binding shifts an interference pattern.

What is called Kd is a measure of binding affinity in units of concentration. The koff is the first-order rate constant of dissociation. In general, kon refers to the second-order rate constant of association.

T1 sequence (P27487 29-766): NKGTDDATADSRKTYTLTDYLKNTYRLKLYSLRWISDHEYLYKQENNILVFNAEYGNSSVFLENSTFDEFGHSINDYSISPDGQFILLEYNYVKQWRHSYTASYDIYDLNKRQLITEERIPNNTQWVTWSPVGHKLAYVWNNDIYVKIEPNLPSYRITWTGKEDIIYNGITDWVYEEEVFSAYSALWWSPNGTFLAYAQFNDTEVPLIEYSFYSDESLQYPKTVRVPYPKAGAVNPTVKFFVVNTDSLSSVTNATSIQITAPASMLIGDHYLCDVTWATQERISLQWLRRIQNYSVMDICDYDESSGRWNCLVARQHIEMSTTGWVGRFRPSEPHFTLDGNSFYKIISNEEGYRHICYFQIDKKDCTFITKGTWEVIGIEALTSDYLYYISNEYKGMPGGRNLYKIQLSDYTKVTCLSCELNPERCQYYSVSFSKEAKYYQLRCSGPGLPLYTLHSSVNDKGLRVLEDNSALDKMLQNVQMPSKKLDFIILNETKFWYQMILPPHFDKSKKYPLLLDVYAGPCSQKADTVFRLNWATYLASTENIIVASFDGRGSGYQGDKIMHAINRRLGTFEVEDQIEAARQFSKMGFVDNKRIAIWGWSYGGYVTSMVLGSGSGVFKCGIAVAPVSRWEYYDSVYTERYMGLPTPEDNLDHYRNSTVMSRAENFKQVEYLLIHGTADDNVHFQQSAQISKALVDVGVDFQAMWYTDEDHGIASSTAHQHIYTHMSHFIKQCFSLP

B1: HA-His6-tagged VHH B3 (VHH)
VHH: QVQLQESGGGLVQAGGSLRLSCAVSGRLFSTNAMGWYRQAPGKQRELVAGITGGDRSNYADSVKGRFTISRDNGKNTLYLQMNSLKPEDTAVYYCNFYPPIVGDYWGQGTQVTVSS
notes: also called B3 with HA-His6-tag
For B1, the signal-to-background ratio in assay [1] was around 1; in assay [5] it was above 25. Besides, the binding result in assay [2], in assay [3] and in assay [4] was “no binding” each time.

B2: His6-tagged VHH B1 (VHH)
VHH: DVQLVESGGGLVQPGGSLRLSCVASGRLSSSNSMAWYRQVPGKRRELVAGITGGGETNYADFVGGRFTISRDNAKNGLYLQLNGLKPEDTAAYYCNFWPPLINYWGQGTQVTVSS
notes: Purified, unlabelled; used in bio-layer interferometry; also called B1 with His6-tag
With B2, the Kd is 0.0378 nM in assay [6], below 0.05 nM in assay [7] and 0.742 nM in assay [8]. Besides, the values for the koff in assay [6] and in assay [8] were 2.7e-05 s⁻¹ and 0.0014 s⁻¹, respectively. Also, the kon in assay [6] was found to be 700000 M⁻¹ s⁻¹; in assay [8], 1.9e+06 M⁻¹ s⁻¹.
